Test results reported in patent publication US20260008815A1, “CYCLIC PEPTIDE OR SALT THEREOF, AND USES THEREOF” (FUJIFILM Corporation, priority 2023, published 2026).
Blank lines part the entries; values can stand above or below the binder they belong to. Bridge positions count the residues as written; N and C are the ends. Ends that are not written are not given here. COCH2 = acetyl group that carries the bridge

Target: T1, Recombinant Human FGFR2 alpha (IIIc) Fc Chimera Protein, CF (R&D systems, 712-FR-050) (human, UniProt P21802 22-377)
T1 construct: bought; not shown: Fc part of the chimera
Assay: ELISA on plate-bound FGFR2-Fc
Procedure, shortened: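 Peptide binding scored by category from dose-response of background-corrected luminescence (FGFR-coated minus uncoated wells). Detection via anti-Myc antibody (2 h, room temperature) after 3 h peptide incubation on wells coated with 5 ng FGFR2 alpha (IIIc)-Fc.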

T1 sequence (P21802 22-377, change not shown): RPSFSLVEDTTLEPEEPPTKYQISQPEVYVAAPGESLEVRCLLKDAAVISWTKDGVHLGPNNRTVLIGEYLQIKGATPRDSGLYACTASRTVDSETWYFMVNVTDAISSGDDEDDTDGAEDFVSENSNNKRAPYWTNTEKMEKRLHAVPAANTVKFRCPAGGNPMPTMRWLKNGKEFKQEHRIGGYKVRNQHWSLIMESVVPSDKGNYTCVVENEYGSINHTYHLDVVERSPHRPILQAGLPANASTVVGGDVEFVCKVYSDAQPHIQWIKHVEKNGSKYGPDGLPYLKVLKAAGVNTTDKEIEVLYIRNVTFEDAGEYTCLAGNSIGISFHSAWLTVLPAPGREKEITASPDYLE

Binder: QCQLYYLYQYAYALK(COCH2)V (thioether 2-15) [cyclic peptide SEQ ID NO: 383]
ELISA luminescence signal at 10 nmol/L peptide, relative to SEQ ID NO: 47 (=1): 0.1 to 0.5 ratio

Binder: QCAYYHLYQYLHQLK(COCH2)V (thioether 2-15) [cyclic peptide SEQ ID NO: 385]
ELISA luminescence signal at 10 nmol/L peptide, relative to SEQ ID NO: 47 (=1): 0.5 to 0.7 ratio

Binder: KCAPQNFINPVQWRYFQHYKN (thioether ring (C)-(K(acetyl))) [cyclic peptide SEQ ID NO: 70]
ELISA luminescence signal at 10 nmol/L peptide, relative to SEQ ID NO: 47 (=1): 0.5 to 0.7 ratio

Binder: KCQNFINPVQWRYFQHYKN (not fully specified; thioether ring (C)-(K(acetyl))) [cyclic peptide SEQ ID NO: 68]
ELISA luminescence signal at 10 nmol/L peptide, relative to SEQ ID NO: 47 (=1): ≥ 0.7 ratio

Binder: VCQEYYLYQYVYELK(COCH2)Y (thioether 2-15) [cyclic peptide SEQ ID NO: 381]
ELISA luminescence signal at 10 nmol/L peptide, relative to SEQ ID NO: 47 (=1): 0.1 to 0.5 ratio

Binder: YCNYEWDGARRQIAYYRIFLK(COCH2)L (thioether 2-21 (inferred)) [cyclic peptide SEQ ID NO: 414]
ELISA luminescence signal at 10 nmol/L peptide, relative to SEQ ID NO: 47 (=1): 0.1 to 0.5 ratio

Binder: GCGYTQLHYQHLFAWLHARK(COCH2)V (thioether 2-20 (inferred)) [cyclic peptide SEQ ID NO: 425]
ELISA luminescence signal at 10 nmol/L peptide, relative to SEQ ID NO: 47 (=1): 0.1 to 0.5 ratio

Binder: VCQQDNYFYPQQWFFFVHYK(COCH2)H (thioether 2-20) [cyclic peptide SEQ ID NO: 400]
ELISA luminescence signal at 10 nmol/L peptide, relative to SEQ ID NO: 47 (=1): ≥ 0.7 ratio

B1: cyclic peptide SEQ ID NO: 402 (peptide)
peptide: PCEVYNYWYPTQWFFFTQFK(COCH2)K
modifications: thioether 2-20; not fully specified; printed as P-(C)-EVYNYWYPTQWFFFTQF-(K(acetyl))-K
ELISA luminescence signal at 10 nmol/L peptide, relative to SEQ ID NO: 47 (=1): ≥ 0.7 ratio

Binder: QCIQDLYLYLYFLK(COCH2)T (thioether 2-14) [cyclic peptide SEQ ID NO: 376]
ELISA luminescence signal at 10 nmol/L peptide, relative to SEQ ID NO: 47 (=1): 0.1 to 0.5 ratio

Binder: TCVDKDNWYNHVQWQYFFLYK(COCH2)Q (thioether 2-21) [cyclic peptide SEQ ID NO: 411]
ELISA luminescence signal at 10 nmol/L peptide, relative to SEQ ID NO: 47 (=1): ≥ 0.7 ratio

Binder: YCEAQPYYFQLYRLWHRQEK(COCH2)P (thioether 2-20 (inferred)) [cyclic peptide SEQ ID NO: 420]
ELISA luminescence signal at 10 nmol/L peptide, relative to SEQ ID NO: 47 (=1): 0.1 to 0.5 ratio

Binder: PCDRQLYYLYQYIHK(COCH2)T (thioether 2-15) [cyclic peptide SEQ ID NO: 382]
ELISA luminescence signal at 10 nmol/L peptide, relative to SEQ ID NO: 47 (=1): 0.1 to 0.5 ratio

B2: cyclic peptide SEQ ID NO: 404 (peptide)
peptide: DCIRPYDQLQLIYQYLYQLK(COCH2)K
modifications: thioether 2-20; not fully specified; printed as D-(C)-IRPYDQLQLIYQYLYQL-(K(acetyl))-K
ELISA luminescence signal at 10 nmol/L peptide, relative to SEQ ID NO: 47 (=1): 0.1 to 0.5 ratio

Binder: YCPPQLVYLYQYLYK(COCH2)L (thioether 2-15) [cyclic peptide SEQ ID NO: 380]
ELISA luminescence signal at 10 nmol/L peptide, relative to SEQ ID NO: 47 (=1): 0.1 to 0.5 ratio

Binder: PCEQQNFHSVIQWHFFAQYK(COCH2)N (thioether 2-20 (inferred)) [cyclic peptide SEQ ID NO: 406]
ELISA luminescence signal at 10 nmol/L peptide, relative to SEQ ID NO: 47 (=1): ≥ 0.7 ratio

Binder: ECDTADYPQEWIQDVYQYLYK(COCH2)R (thioether 2-21 (inferred)) [cyclic peptide SEQ ID NO: 427]
ELISA luminescence signal at 10 nmol/L peptide, relative to SEQ ID NO: 47 (=1): 0.1 to 0.5 ratio

Binder: VCTQPQQDFELIYQYLYQLAK(COCH2)Q (thioether 2-21 (inferred)) [cyclic peptide SEQ ID NO: 424]
ELISA luminescence signal at 10 nmol/L peptide, relative to SEQ ID NO: 47 (=1): 0.1 to 0.5 ratio

Binder: RCHHNFHHARQHGFFYHYK(COCH2)R (thioether 2-19) [cyclic peptide SEQ ID NO: 388]
ELISA luminescence signal at 10 nmol/L peptide, relative to SEQ ID NO: 47 (=1): 0.1 to 0.5 ratio

Binder: RCHHNFHHARQHGFFWHYK(COCH2)R (thioether 2-19) [cyclic peptide SEQ ID NO: 389]
ELISA luminescence signal at 10 nmol/L peptide, relative to SEQ ID NO: 47 (=1): 0.1 to 0.5 ratio

Binder: RCHHNFHHARQWGFFHHYK(COCH2)R (thioether 2-19) [cyclic peptide SEQ ID NO: 386]
ELISA luminescence signal at 10 nmol/L peptide, relative to SEQ ID NO: 47 (=1): 0.5 to 0.7 ratio

Binder: YCDWVEVANARQLAYYTLYRK(COCH2)K (thioether 2-21) [cyclic peptide SEQ ID NO: 415]
ELISA luminescence signal at 10 nmol/L peptide, relative to SEQ ID NO: 47 (=1): 0.1 to 0.5 ratio

Binder: LCTQFPASQRYYFALYRLWHK(COCH2)S (thioether 2-21 (inferred)) [cyclic peptide SEQ ID NO: 416]
ELISA luminescence signal at 10 nmol/L peptide, relative to SEQ ID NO: 47 (=1): 0.1 to 0.5 ratio

Binder: QCQLYYLYQYTIAIK(COCH2)T (thioether 2-15) [cyclic peptide SEQ ID NO: 384]
ELISA luminescence signal at 10 nmol/L peptide, relative to SEQ ID NO: 47 (=1): 0.1 to 0.5 ratio

Binder: QCEYALQYYRFYVAQRHWVDK(COCH2)L (thioether 2-21 (inferred)) [cyclic peptide SEQ ID NO: 412]
ELISA luminescence signal at 10 nmol/L peptide, relative to SEQ ID NO: 47 (=1): 0.1 to 0.5 ratio

Binder: DCLRQQVYQYLYILFQNDIAK(COCH2)D (thioether 2-21 (inferred)) [cyclic peptide SEQ ID NO: 418]
ELISA luminescence signal at 10 nmol/L peptide, relative to SEQ ID NO: 47 (=1): 0.1 to 0.5 ratio

Binder: HCSQHQTTYYQIYAYLHAIK(COCH2)I (thioether 2-20 (inferred)) [cyclic peptide SEQ ID NO: 408]
ELISA luminescence signal at 10 nmol/L peptide, relative to SEQ ID NO: 47 (=1): 0.1 to 0.5 ratio

Binder: VCLDEQQALFHQYYRITRRK(COCH2)V (thioether 2-20 (inferred)) [cyclic peptide SEQ ID NO: 421]
ELISA luminescence signal at 10 nmol/L peptide, relative to SEQ ID NO: 47 (=1): 0.1 to 0.5 ratio

Binder: NCQLYYTYLYLHTLK(COCH2)F (thioether 2-15) [cyclic peptide SEQ ID NO: 379]
ELISA luminescence signal at 10 nmol/L peptide, relative to SEQ ID NO: 47 (=1): 0.1 to 0.5 ratio

Binder: LCVQGNYQNPTQWYYFQLYK(COCH2)W (thioether 2-20 (inferred)) [cyclic peptide SEQ ID NO: 407]
ELISA luminescence signal at 10 nmol/L peptide, relative to SEQ ID NO: 47 (=1): 0.5 to 0.7 ratio

Binder: QCQFLNYVNHVQWHYFWVFK(COCH2)S (thioether 2-20) [cyclic peptide SEQ ID NO: 401]
ELISA luminescence signal at 10 nmol/L peptide, relative to SEQ ID NO: 47 (=1): 0.1 to 0.5 ratio

Next, values leading:

ELISA luminescence signal at 10 nmol/L peptide, relative to SEQ ID NO: 47 (=1): 0.1 to 0.5 ratio
Binder: WCFTEGIQSTVQLTYSYLYK(COCH2)L (thioether 2-20 (inferred)) [cyclic peptide SEQ ID NO: 423]

ELISA luminescence signal at 10 nmol/L peptide, relative to SEQ ID NO: 47 (=1): 0.1 to 0.5 ratio
Binder: QCDQDAIQWVYDLQYYRVWHK(COCH2)V (thioether 2-21 (inferred)) [cyclic peptide SEQ ID NO: 413]

ELISA luminescence signal at 10 nmol/L peptide, relative to SEQ ID NO: 47 (=1): ≥ 0.7 ratio
Binder: WCQESSNYLAPLQWYFFNWYK(COCH2)T (thioether 2-21 (inferred)) [cyclic peptide SEQ ID NO: 410]

ELISA luminescence signal at 10 nmol/L peptide, relative to SEQ ID NO: 47 (=1): 0.5 to 0.7 ratio
Binder: ACRRANWIHPIQWFFFHVYK(COCH2)H (thioether 2-20) [cyclic peptide SEQ ID NO: 403]

ELISA luminescence signal at 10 nmol/L peptide, relative to SEQ ID NO: 47 (=1): 0.1 to 0.5 ratio
Binder: PCDPLNLQQWYTAVYQLWHK(COCH2)R (thioether 2-20 (inferred)) [cyclic peptide SEQ ID NO: 426]

ELISA luminescence signal at 10 nmol/L peptide, relative to SEQ ID NO: 47 (=1): 0.1 to 0.5 ratio
Binder: HCLHYLYQYLYTVK(COCH2)Y (thioether 2-14) [cyclic peptide SEQ ID NO: 377]

ELISA luminescence signal at 10 nmol/L peptide, relative to SEQ ID NO: 47 (=1): 0.1 to 0.5 ratio
Binder: KCPQNFINPVQWRYFQHYAKN (thioether ring (C)-(K(acetyl))) [cyclic peptide SEQ ID NO: 69]

ELISA luminescence signal at 10 nmol/L peptide, relative to SEQ ID NO: 47 (=1): ≥ 0.7 ratio
Binder: LCNNWENYFDWLQWSYYIAYK(COCH2)E (thioether 2-21 (inferred)) [cyclic peptide SEQ ID NO: 409]

ELISA luminescence signal at 10 nmol/L peptide, relative to SEQ ID NO: 47 (=1): 0.1 to 0.5 ratio
Binder: ECDQAQQVYALIYRYLYQLQK(COCH2)V (thioether 2-21 (inferred)) [cyclic peptide SEQ ID NO: 428]

ELISA luminescence signal at 10 nmol/L peptide, relative to SEQ ID NO: 47 (=1): 0.1 to 0.5 ratio
Binder: DCHTREDWQIHHLYQLLYQLK(COCH2)Y (thioether 2-21 (inferred)) [cyclic peptide SEQ ID NO: 419]

ELISA luminescence signal at 10 nmol/L peptide, relative to SEQ ID NO: 47 (=1): 0.1 to 0.5 ratio
Binder: QCPRQLYYLYLYLSK(COCH2)I (thioether 2-15) [cyclic peptide SEQ ID NO: 378]

ELISA luminescence signal at 10 nmol/L peptide, relative to SEQ ID NO: 47 (=1): 0.1 to 0.5 ratio
Binder: RCHHNFHHARQHRFFHHYK(COCH2)R (thioether 2-19) [cyclic peptide SEQ ID NO: 387]

ELISA luminescence signal at 10 nmol/L peptide, relative to SEQ ID NO: 47 (=1): 0.1 to 0.5 ratio
Binder: LCQIYLYLTALQQGFEDFYPK(COCH2)N (thioether 2-21 (inferred)) [cyclic peptide SEQ ID NO: 417]

ELISA luminescence signal at 10 nmol/L peptide, relative to SEQ ID NO: 47 (=1): 0.1 to 0.5 ratio
Binder: YCTQEQAFRQLAYYQIFRRSK(COCH2)S (thioether 2-21 (inferred)) [cyclic peptide SEQ ID NO: 422]

ELISA luminescence signal at 10 nmol/L peptide, relative to SEQ ID NO: 47 (=1): 0.1 to 0.5 ratio
Binder: QCLTQRVYLRQLAYYRLYRK(COCH2)I (thioether 2-20 (inferred)) [cyclic peptide SEQ ID NO: 405]
